Measurements taken from patent publication US20150030697A1.

Assays:
[1] = biological target: Guanylate cyclase C (GC-C) (human), P25092; assay: cell-based or functional assay
[2] = biological target: Guanylate cyclase C (GC-C) (human), P25092

Sequence of Guanylate cyclase C (GC-C) (human), P25092 (P25092 24-1073): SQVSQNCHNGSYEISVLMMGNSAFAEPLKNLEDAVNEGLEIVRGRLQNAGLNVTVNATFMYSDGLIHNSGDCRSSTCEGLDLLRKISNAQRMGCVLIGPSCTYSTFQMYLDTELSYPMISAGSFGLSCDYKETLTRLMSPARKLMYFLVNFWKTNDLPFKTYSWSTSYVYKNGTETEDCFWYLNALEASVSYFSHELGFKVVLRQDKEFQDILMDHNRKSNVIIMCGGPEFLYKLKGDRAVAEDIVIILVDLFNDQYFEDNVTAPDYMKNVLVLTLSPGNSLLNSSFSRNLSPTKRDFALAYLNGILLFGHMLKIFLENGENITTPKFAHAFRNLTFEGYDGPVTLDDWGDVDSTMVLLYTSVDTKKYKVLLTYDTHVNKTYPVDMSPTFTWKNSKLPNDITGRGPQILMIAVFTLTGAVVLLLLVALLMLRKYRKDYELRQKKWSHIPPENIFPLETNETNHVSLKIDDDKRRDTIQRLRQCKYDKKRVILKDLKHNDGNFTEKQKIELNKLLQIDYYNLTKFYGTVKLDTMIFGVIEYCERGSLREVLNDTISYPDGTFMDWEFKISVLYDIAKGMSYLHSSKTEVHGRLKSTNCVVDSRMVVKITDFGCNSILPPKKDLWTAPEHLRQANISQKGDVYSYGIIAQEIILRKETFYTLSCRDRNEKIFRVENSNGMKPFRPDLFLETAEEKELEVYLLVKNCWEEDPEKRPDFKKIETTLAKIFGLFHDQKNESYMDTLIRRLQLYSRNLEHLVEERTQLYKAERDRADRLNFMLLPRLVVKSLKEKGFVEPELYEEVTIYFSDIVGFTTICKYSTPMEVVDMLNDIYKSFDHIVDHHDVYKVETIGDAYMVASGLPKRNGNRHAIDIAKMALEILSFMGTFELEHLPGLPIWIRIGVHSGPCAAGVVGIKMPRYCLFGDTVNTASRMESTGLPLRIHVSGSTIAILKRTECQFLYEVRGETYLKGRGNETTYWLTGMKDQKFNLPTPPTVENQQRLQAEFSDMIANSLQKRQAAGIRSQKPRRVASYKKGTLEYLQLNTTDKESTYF

Binder: CCELCCNPACTGCY (modifications not checked) [Peptide 3]
- EC50 at pH 5 (nM), cGMP response of T84 cells [1]: 16 nM
- Ki [2]: 1.2 nM
